Data taken from US9284543B2, “Neutral active soluble truncated PH20 polypeptides and uses thereof” (Halozyme, Inc., priority 2008, dated 2016).

Assays:
[1] = Microtiter hyaluronidase activity assay with biotinylated-hyaluronic acid; format: biochemical; conditions: for pH 5.5 Activity / pH 7.4 Activity: 72 hour post transfection supernatant
CHO-S cells [2] = test: PI-PLC treatment of expressing cells, Western blot of media and cells; format: cell-based, Chinese Hamster; conditions: cells incubated with PI-PLC for 2 hours
Protocol: In this example, following transient expression, as described in Example 2 above, the media and cells were harvested separately and analyzed for PH20 expression and solublility by Western blot analysis. Solubility of the C-terminus truncation mutants was determined by examining whether the expressed protein was present in the growth media or in the cells. […] Cells expressing these mutants were treated with phosphoinositol-phospholipase C (PI-PLC), which cleaves the GPI-anchor allowing the release of soluble protein into the media, and the presence of PH20 in the resulting media and cells was determined by Western blot analysis.
Following expression of rHuPH20 in CHO—S cells for 72 hours, as described in Example 2A above, the media and cells were harvested separately. The cells were washed with serum-free media followed by the addition of 2 mL serum-free media per well. PI-PLC (0.5 units/well) was added to each well and the cells were incubated in the PI-PLC for 2 hours. The resultant media and cells were analyzed by Western blot analysis as described above.
Two plates each of rHuPH20 expressing CHO—S cells, one for treatment with PI-PLC and one without treatment with PI-PLC, were prepared for each C-terminus mutant as described in Example 2B above. Following expression for 48 hours, for cells untreated with PI-PLC, the media and cells were harvested separately. The harvested media was spun down, concentrated to a volume of 10 mL, and buffer exchanged into PBS using an Amicon 30 kD MWCO concentrator. The cells were rinsed with cold PBS and scraped and resuspended in 1.2 mL PBS with protease inhibitor Set III (Cat No. 539134, Calbiochem). The resuspended cells were briefly sonicated to prepare whole-cell extract. For PI-PLC treatment of cells, following expression for 48 hours, the untreated media was harvested, as described above. The cells were rinsed once with fresh CD DG44 medium with Glutamax-1, and the media was replaced with 12 mL fresh detergent free CD DG44 medium supplemented with Glutamax-1 with 3.0 units PI-PLC per dish, and the cells were incubated for 2 hours at 37° C. with 5% CO2. After 2 hours, the PI-PLC media and cells were harvested separately, as described above. The resultant untreated media and cells, and PI-PLC treated media and cells, were analyzed by Western blot analysis as described above.

CHO-S cells [3] = test: Western blot analysis of PH20 expression in media and cells after transient expression; format: cell-based, Chinese Hamster; conditions: media versus cells
Summary of the method: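 CHO-S cells were transiently transfected with mutant PH20-HZ24 plasmids using GeneJuice and expressed for 48-72 h at 37 °C, 5% CO2. Media and cells were harvested separately, with PI-PLC treatment used to release GPI-anchored protein. Non-reduced samples were blotted with rabbit anti-PH20 (0.5 μg/mL), and a band near 66 kDa was scored as PH20.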

[4] = Triton X-114 partition assay; format: physicochemical; conditions: partition into aqueous phase of Triton X-114 at 37° C.
Protocol: Solubility of a hyaluronidase can be determined by any method known to one of the skill in the art. One method for determining solubility is by detergent partitioning. […] For example, the solubility of the PH20 polypeptides described herein is assessed as described in Example 4. Membrane-anchored hyaluronidases, such as lipid-anchored hyaluronidases, including GPI-anchored hyaluronidases, will partition into the detergent-rich phase, but will partition into the detergent-poor or aqueous phase following treatment with Phospholipase C. Phospholipase C is an enzyme that cleaves the […] found in GPI-anchored proteins. Treatment with PLC will cause release of GPI-linked proteins from the outer cell membrane.
The samples were heated to 37° C. for 3 minutes to induce phase separation and centrifuged for 3 min at 4000 g at room temperature. Aqueous and detergent phases were removed for SDS-PAGE analysis and Western blotting. Rabbit anti-PH20 IgG (0.5 μg/mL) was used as the primary antibody and HRP-conjugated goat anti-Rabbit IgG (0.1 ng/mL, Cat#DC03L, EMD) was used as the secondary antibody. Full length human PH20, which partitions strongly into the detergent phase, was used as a control.

Row | pH 5.5 Activity ([1]; Table 6) | pH 7.4 Activity ([1]; Table 6) | pH 5.5 Activity ([1]; Table 6A) | pH 7.4 Activity ([1]; Table 6A) | Molecule | Expressed in Media Following Addition of PI-PLC (CHO-S cells [2]) | Hyaluronidase activity (in words) ([1]; pH 7.4 and pH 5.5) | Expressed in Media (CHO-S cells [3]) | Soluble [4] | Soluble ([4]; listed as Full length PH20)
1 | 0.837 Units/ml | 1.458 Units/ml | 0.932 Units/ml | 1.863 Units/ml | SPAM1-IISS: C-terminally truncated human PH20, precursor 505 aa (SEQ ID NO:4), mature 470 aa (SEQ ID NO:56) (protein, listed as Homo sapiens, HuPH20 precursor 1-505; mature HuPH20 36-505) chain 1: MGVLKFKHIFFRSFVKSSGVSQIVFTFLLIPCCLTLNFRAPPVIPNVPFLWAWNAPSEFCLGKFDEPLDMSLFSFIGSPRINATGQGVTIFYVDRLGYYPYIDSITGVTVNGGIPQKISLQDHLDKAKKDITFYMPVDNLGMAVIDWEEWRPTWARNWKPKDVYKNRSIELVQQQNVQLSLTEATEKAKQEFEKAGKDFLVETIKLGKLLRPNHLWGYYLFPDCYNHHYKKPGYNGSCFNVEIKRNDDLSWLWNESTALYPSIYLNTQQSPVAATLYVRNRVREAIRVSKIPDAKSPLPVFAYTRIVFTDQVLKFLSQDELVYTFGETVALGASGIVIWGTLSIMRSMKSCLLLDNYMETILNPYIINVTLAAKMCSQVLCQEQGVCIRKNWNSSDYLHLNPDNFAIQLEKGGKFTVRGKPTLEDLEQFSEKFYCSCYSTLSCKEKADVKDTDAVDVCIADGVCIDAFLKPPMETEEPQIFYNASPSTLSATMFIVSILFLIISS chain 2: LNFRAPPVIPNVPFLWAWNAPSEFCLGKFDEPLDMSLFSFIGSPRINATGQGVTIFYVDRLGYYPYIDSITGVTVNGGIPQKISLQDHLDKAKKDITFYMPVDNLGMAVIDWEEWRPTWARNWKPKDVYKNRSIELVQQQNVQLSLTEATEKAKQEFEKAGKDFLVETIKLGKLLRPNHLWGYYLFPDCYNHHYKKPGYNGSCFNVEIKRNDDLSWLWNESTALYPSIYLNTQQSPVAATLYVRNRVREAIRVSKIPDAKSPLPVFAYTRIVFTDQVLKFLSQDELVYTFGETVALGASGIVIWGTLSIMRSMKSCLLLDNYMETILNPYIINVTLAAKMCSQVLCQEQGVCIRKNWNSSDYLHLNPDNFAIQLEKGGKFTVRGKPTLEDLEQFSEKFYCSCYSTLSCKEKADVKDTDAVDVCIADGVCIDAFLKPPMETEEPQIFYNASPSTLSATMFIVSILFLIISS | YES | – | – | – | –
2 | – | – | 0.203 Units/ml | 0.527 Units/ml | SPAM1-IVSI: C-terminally truncated human PH20, precursor 498 aa (SEQ ID NO:49), mature 463 aa (SEQ ID NO:101) (protein, listed as Homo sapiens, HuPH20 precursor 1-498; Mature HuPH20 36-498) chain 1: MGVLKFKHIFFRSFVKSSGVSQIVFTFLLIPCCLTLNFRAPPVIPNVPFLWAWNAPSEFCLGKFDEPLDMSLFSFIGSPRINATGQGVTIFYVDRLGYYPYIDSITGVTVNGGIPQKISLQDHLDKAKKDITFYMPVDNLGMAVIDWEEWRPTWARNWKPKDVYKNRSIELVQQQNVQLSLTEATEKAKQEFEKAGKDFLVETIKLGKLLRPNHLWGYYLFPDCYNHHYKKPGYNGSCFNVEIKRNDDLSWLWNESTALYPSIYLNTQQSPVAATLYVRNRVREAIRVSKIPDAKSPLPVFAYTRIVFTDQVLKFLSQDELVYTFGETVALGASGIVIWGTLSIMRSMKSCLLLDNYMETILNPYIINVTLAAKMCSQVLCQEQGVCIRKNWNSSDYLHLNPDNFAIQLEKGGKFTVRGKPTLEDLEQFSEKFYCSCYSTLSCKEKADVKDTDAVDVCIADGVCIDAFLKPPMETEEPQIFYNASPSTLSATMFIVSI chain 2: LNFRAPPVIPNVPFLWAWNAPSEFCLGKFDEPLDMSLFSFIGSPRINATGQGVTIFYVDRLGYYPYIDSITGVTVNGGIPQKISLQDHLDKAKKDITFYMPVDNLGMAVIDWEEWRPTWARNWKPKDVYKNRSIELVQQQNVQLSLTEATEKAKQEFEKAGKDFLVETIKLGKLLRPNHLWGYYLFPDCYNHHYKKPGYNGSCFNVEIKRNDDLSWLWNESTALYPSIYLNTQQSPVAATLYVRNRVREAIRVSKIPDAKSPLPVFAYTRIVFTDQVLKFLSQDELVYTFGETVALGASGIVIWGTLSIMRSMKSCLLLDNYMETILNPYIINVTLAAKMCSQVLCQEQGVCIRKNWNSSDYLHLNPDNFAIQLEKGGKFTVRGKPTLEDLEQFSEKFYCSCYSTLSCKEKADVKDTDAVDVCIADGVCIDAFLKPPMETEEPQIFYNASPSTLSATMFIVSI | Initially in media | little detectable activity | YES | YES | –
3 | 0.6345 Units/ml | 0.9405 Units/ml | 0.648 Units/ml | 1.094 Units/ml | SPAM1-FLII: C-terminally truncated human PH20, precursor 503 aa (SEQ ID NO:5), mature 468 aa (SEQ ID NO:57) (protein, listed as Homo sapiens, HuPH20 precursor 1-503; mature HuPH20 36-503) chain 1: MGVLKFKHIFFRSFVKSSGVSQIVFTFLLIPCCLTLNFRAPPVIPNVPFLWAWNAPSEFCLGKFDEPLDMSLFSFIGSPRINATGQGVTIFYVDRLGYYPYIDSITGVTVNGGIPQKISLQDHLDKAKKDITFYMPVDNLGMAVIDWEEWRPTWARNWKPKDVYKNRSIELVQQQNVQLSLTEATEKAKQEFEKAGKDFLVETIKLGKLLRPNHLWGYYLFPDCYNHHYKKPGYNGSCFNVEIKRNDDLSWLWNESTALYPSIYLNTQQSPVAATLYVRNRVREAIRVSKIPDAKSPLPVFAYTRIVFTDQVLKFLSQDELVYTFGETVALGASGIVIWGTLSIMRSMKSCLLLDNYMETILNPYIINVTLAAKMCSQVLCQEQGVCIRKNWNSSDYLHLNPDNFAIQLEKGGKFTVRGKPTLEDLEQFSEKFYCSCYSTLSCKEKADVKDTDAVDVCIADGVCIDAFLKPPMETEEPQIFYNASPSTLSATMFIVSILFLII chain 2: LNFRAPPVIPNVPFLWAWNAPSEFCLGKFDEPLDMSLFSFIGSPRINATGQGVTIFYVDRLGYYPYIDSITGVTVNGGIPQKISLQDHLDKAKKDITFYMPVDNLGMAVIDWEEWRPTWARNWKPKDVYKNRSIELVQQQNVQLSLTEATEKAKQEFEKAGKDFLVETIKLGKLLRPNHLWGYYLFPDCYNHHYKKPGYNGSCFNVEIKRNDDLSWLWNESTALYPSIYLNTQQSPVAATLYVRNRVREAIRVSKIPDAKSPLPVFAYTRIVFTDQVLKFLSQDELVYTFGETVALGASGIVIWGTLSIMRSMKSCLLLDNYMETILNPYIINVTLAAKMCSQVLCQEQGVCIRKNWNSSDYLHLNPDNFAIQLEKGGKFTVRGKPTLEDLEQFSEKFYCSCYSTLSCKEKADVKDTDAVDVCIADGVCIDAFLKPPMETEEPQIFYNASPSTLSATMFIVSILFLII | YES | – | – | – | –
4 | 0.891 Units/ml | 1.8045 Units/ml | – | – | SPAM1-VASL: full length human PH20, precursor 509 aa (SEQ ID NO:1), mature 474 aa (SEQ ID NO:108) (protein, listed as Homo sapiens, Human PH20 cDNA encoding amino acids 1-509) MGVLKFKHIFFRSFVKSSGVSQIVFTFLLIPCCLTLNFRAPPVIPNVPFLWAWNAPSEFCLGKFDEPLDMSLFSFIGSPRINATGQGVTIFYVDRLGYYPYIDSITGVTVNGGIPQKISLQDHLDKAKKDITFYMPVDNLGMAVIDWEEWRPTWARNWKPKDVYKNRSIELVQQQNVQLSLTEATEKAKQEFEKAGKDFLVETIKLGKLLRPNHLWGYYLFPDCYNHHYKKPGYNGSCFNVEIKRNDDLSWLWNESTALYPSIYLNTQQSPVAATLYVRNRVREAIRVSKIPDAKSPLPVFAYTRIVFTDQVLKFLSQDELVYTFGETVALGASGIVIWGTLSIMRSMKSCLLLDNYMETILNPYIINVTLAAKMCSQVLCQEQGVCIRKNWNSSDYLHLNPDNFAIQLEKGGKFTVRGKPTLEDLEQFSEKFYCSCYSTLSCKEKADVKDTDAVDVCIADGVCIDAFLKPPMETEEPQIFYNASPSTLSATMFIVSILFLIISSVASL | YES | – | – | – | insoluble
